We go through three substances from patent US20170088631A1.

Assay [1] addresses IL-2R βγ heterodimer on cells (NK92 cells; human NK cells and CD8+ T cells) (human) (UniProt P14784). The experiment in a line: cell-based or functional assay.
Assay [2] concerns the target human IL-2R βγ heterodimer (IL-2R β subunit-Fc(hole) / IL-2R γ subunit-Fc(knob) fusion) (human). Nature of the assay: SPR, human IL-2R βγ heterodimer immobilized on the chip, construct as analyte, 25 C; apparent KD, 1:1 fit. (In general: Surface plasmon resonance follows binding to a sensor surface in real time, without labels.)
In assay [3] the target is human Fibroblast Activation Protein (FAP), recombinant (human) (UniProt Q12884). Nature of the assay: SPR (Biacore), His-tagged human FAP captured by anti-His antibody, construct as analyte, 25 C; apparent bivalent affinity (avidity), 1:1 fit.
Assay [4] concerns the target human FAP expressed on stably transfected HEK 293 cells (human) (UniProt Q12884). Nature of the assay: flow cytometry on HEK293 cells stably transfected with human FAP, 4 C, FITC anti-human F(ab')2 detection.
Assay [5] concerns the target Carcinoembryonic Antigen (CEA) (human) (UniProt P06731). The experiment in a line: SPR at 25 C; IL-2 wt.
The target is the same in assay [6]. The experiment in a line: SPR at 25 C; IL-2 qm.

Carcinoembryonic Antigen (CEA) (human), sequence (P06731 35-685 limits assumed): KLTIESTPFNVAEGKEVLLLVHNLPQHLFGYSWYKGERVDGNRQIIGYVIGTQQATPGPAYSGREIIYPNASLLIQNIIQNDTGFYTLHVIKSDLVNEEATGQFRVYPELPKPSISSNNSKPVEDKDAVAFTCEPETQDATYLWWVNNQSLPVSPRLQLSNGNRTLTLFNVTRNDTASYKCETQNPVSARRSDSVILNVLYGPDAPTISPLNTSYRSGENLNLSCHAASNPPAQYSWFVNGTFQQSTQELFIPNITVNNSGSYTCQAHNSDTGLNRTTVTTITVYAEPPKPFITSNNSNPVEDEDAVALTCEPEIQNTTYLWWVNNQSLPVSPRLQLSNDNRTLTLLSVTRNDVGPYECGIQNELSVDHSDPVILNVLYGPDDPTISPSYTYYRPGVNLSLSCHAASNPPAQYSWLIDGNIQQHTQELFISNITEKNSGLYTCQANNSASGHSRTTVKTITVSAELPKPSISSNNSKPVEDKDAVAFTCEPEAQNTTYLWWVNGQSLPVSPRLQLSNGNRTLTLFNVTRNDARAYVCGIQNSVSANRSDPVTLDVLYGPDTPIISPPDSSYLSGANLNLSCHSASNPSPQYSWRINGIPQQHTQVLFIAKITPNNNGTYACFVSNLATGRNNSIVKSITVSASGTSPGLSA
IL-2R βγ heterodimer on cells (NK92 cells; human NK cells and CD8+ T cells) (human), sequence (P14784 27-551, chain 1 of 2): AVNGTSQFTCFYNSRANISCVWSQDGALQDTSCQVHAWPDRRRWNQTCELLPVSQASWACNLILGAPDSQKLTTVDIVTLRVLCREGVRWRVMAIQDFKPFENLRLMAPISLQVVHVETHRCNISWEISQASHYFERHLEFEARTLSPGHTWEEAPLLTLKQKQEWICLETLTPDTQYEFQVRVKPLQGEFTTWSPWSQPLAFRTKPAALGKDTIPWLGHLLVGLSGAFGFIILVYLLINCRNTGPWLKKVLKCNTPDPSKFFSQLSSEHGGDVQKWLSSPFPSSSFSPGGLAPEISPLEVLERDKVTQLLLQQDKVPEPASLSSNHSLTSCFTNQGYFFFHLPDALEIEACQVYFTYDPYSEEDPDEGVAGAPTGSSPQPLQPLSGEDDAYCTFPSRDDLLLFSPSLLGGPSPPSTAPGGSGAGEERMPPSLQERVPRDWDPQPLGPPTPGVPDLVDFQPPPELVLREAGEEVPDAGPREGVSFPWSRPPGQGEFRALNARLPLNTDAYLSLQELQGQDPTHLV
IL-2R βγ heterodimer on cells (NK92 cells; human NK cells and CD8+ T cells) (human), sequence (P31785 23-369, chain 2 of 2, further chain): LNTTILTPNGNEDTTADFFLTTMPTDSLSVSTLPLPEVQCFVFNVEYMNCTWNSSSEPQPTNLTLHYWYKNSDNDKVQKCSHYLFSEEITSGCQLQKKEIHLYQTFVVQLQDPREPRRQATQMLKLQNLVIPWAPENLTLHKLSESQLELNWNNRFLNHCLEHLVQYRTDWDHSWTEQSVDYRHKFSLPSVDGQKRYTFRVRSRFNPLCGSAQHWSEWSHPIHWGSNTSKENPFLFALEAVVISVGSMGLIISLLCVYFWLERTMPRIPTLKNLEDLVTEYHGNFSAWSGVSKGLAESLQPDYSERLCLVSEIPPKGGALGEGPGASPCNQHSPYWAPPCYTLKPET
human IL-2R βγ heterodimer (IL-2R β subunit-Fc(hole) / IL-2R γ subunit-Fc(knob) fusion) (human), sequence (beta, as listed by the source limits assumed, form in doubt, chain 1 of 2): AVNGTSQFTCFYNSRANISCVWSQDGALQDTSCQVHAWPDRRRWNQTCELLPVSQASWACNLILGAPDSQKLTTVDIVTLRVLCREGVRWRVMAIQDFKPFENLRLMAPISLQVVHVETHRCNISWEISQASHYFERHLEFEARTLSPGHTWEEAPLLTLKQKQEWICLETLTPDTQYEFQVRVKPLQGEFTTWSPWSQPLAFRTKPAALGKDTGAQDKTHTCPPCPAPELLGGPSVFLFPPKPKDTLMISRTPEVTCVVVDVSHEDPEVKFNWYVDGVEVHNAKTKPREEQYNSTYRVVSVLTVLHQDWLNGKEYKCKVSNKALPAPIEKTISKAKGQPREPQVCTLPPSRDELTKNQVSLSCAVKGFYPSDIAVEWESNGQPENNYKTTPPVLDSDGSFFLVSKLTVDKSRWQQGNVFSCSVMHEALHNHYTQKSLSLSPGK
human IL-2R βγ heterodimer (IL-2R β subunit-Fc(hole) / IL-2R γ subunit-Fc(knob) fusion) (human), sequence (gamma, as listed by the source limits assumed, form in doubt, chain 2 of 2): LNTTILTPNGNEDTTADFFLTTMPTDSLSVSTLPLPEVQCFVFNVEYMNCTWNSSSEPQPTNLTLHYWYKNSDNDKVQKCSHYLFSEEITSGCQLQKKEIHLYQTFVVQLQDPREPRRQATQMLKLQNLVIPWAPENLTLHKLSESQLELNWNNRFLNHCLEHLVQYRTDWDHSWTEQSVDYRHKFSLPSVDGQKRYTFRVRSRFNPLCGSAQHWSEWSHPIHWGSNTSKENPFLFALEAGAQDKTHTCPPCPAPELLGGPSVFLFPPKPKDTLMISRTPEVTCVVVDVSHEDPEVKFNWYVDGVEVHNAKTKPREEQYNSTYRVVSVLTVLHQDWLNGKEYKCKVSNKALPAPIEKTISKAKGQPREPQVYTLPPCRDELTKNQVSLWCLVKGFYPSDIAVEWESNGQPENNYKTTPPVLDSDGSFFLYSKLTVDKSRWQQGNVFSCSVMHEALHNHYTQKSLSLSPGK

A word on the EC50: it is the concentration needed to bring the measured effect to its halfway point. A lower EC50 goes with higher potency in that assay. With “FAP-targeted 4G8-based IgG-IL-2 quadruple mutant (qm) immunoconjugate”, the fold decrease in STAT5 phosphorylation in NK cells and CD8+ T cells (FACS); potency relative to Proleukin in assay [1] was under 10 fold. Moreover, the Kd turned out to be 5.9 nM in assay [2] and 0.1 nM in assay [3]. The half-maximal effective concentration (EC50) in assay [4] came to 0.9 nM.
Substance “CEA-targeted CH1A1A 98/99 2F1-based IgG-IL-2 wt immunoconjugate” yielded a Kd in assay [5] of 0.47 nM.
Substance “CEA-targeted CH1A1A 98/99 2F1-based IgG-IL-2 qm immunoconjugate” returned a Kd in assay [6] of 0.4 nM.
